Experimental data published in patent US20190382463A1.

Target: human type 1 insulin-like growth factor receptor (human) (UniProt P08069)
Assay: competitive displacement assay, plate capture of solubilized receptor (tracer for IGF-1R not stated)

Kd: 5 nM
Substance: KP-insulin ([Lys^B28, Pro^B29]-insulin, insulin Lispro) (ligand; other documents disagree on this pair)
